# Measurements published in publication PMC10938136.
# Target: Komagataella phaffii Ero1 (Komagataella phaffii) (UniProt F2QNN1)
# Sequence of UniProt F2QNN1 (F2QNN1 entry or part of it): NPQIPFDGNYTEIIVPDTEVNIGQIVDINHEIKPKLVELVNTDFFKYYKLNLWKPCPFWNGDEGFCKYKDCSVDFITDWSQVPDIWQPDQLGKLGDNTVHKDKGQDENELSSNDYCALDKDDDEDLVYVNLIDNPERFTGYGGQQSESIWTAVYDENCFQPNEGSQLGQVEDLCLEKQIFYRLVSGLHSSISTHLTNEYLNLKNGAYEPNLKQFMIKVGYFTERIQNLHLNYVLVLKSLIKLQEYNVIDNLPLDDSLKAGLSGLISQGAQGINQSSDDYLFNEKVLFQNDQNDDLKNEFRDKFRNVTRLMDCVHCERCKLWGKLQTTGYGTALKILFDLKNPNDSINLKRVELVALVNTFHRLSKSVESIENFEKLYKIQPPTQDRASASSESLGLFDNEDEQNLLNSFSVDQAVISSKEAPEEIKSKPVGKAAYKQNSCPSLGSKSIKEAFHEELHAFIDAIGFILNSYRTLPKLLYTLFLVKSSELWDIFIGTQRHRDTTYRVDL
substance,measurement,value
"Komagataella phaffii Erp41, full length, purified (enzyme)","K M PDI for Erp41 as substrate of 1 μM Ero1–Pdi1 complex, oxygen consumption assay (titration of Erp41, 10 mM GSH)",7.07 µM
same,"kcat of oxygen consumption, 1 μM Ero1–Pdi1 complex plus 10 μM Erp41",1.95 s⁻¹
